B1: TRIM27: human RING type E3 ligase expressed from lentiviral vector (protein, UniProt P14373 1-513, looked up)
Zinc finger protein RFP: MASGSVAECLQQETTCPVCLQYFAEPMMLDCGHNICCACLARCWGTAETNVSCPQCRETFPQRHMRPNRHLANVTQLVKQLRTERPSGPGGEMGVCEKHREPLKLYCEEDQMPICVVCDRSREHRGHSVLPLEEAVEGFKEQIQNQLDHLKRVKDLKKRRRAQGEQARAELLSLTQMEREKIVWEFEQLYHSLKEHEYRLLARLEELDLAIYNSINGAITQFSCNISHLSSLIAQLEEKQQQPTRELLQDIGDTLSRAERIRIPEPWITPPDLQEKIHIFAQKCLFLTESLKQFTEKMQSDMEKIQELREAQLYSVDVTLDPDTAYPSLILSDNLRQVRYSYLQQDLPDNPERFNLFPCVLGSPCFIAGRHYWEVEVGDKAKWTIGVCEDSVCRKGGVTSAPQNGFWAVSLWYGKEYWALTSPMTALPLRTPLQRVGIFLDYDAGEVSFYNVTERCHTFTFSHATFCGPVRPYFSLSYSGGKSAAPLIICPMSGIDGFSGHVGNHGHSMETSP
modifications: lentiviral expression
notes: human RING type E3 ligase expressed from lentiviral vector
B2: TRIM33: human RING type E3 ligase expressed from lentiviral vector (protein, UniProt Q9UPN9 1-1127, looked up)
E3 ubiquitin-protein ligase …: MAENKGGGEAESGGGGSGSAPVTAGAAGPAAQEAEPPLTAVLVEEEEEEGGRAGAEGGAAGPDDGGVAAASSGSAQAASSPAASVGTGVAGGAVSTPAPAPASAPAPGPSAGPPPGPPASLLDTCAVCQQSLQSRREAEPKLLPCLHSFCLRCLPEPERQLSVPIPGGSNGDIQQVGVIRCPVCRQECRQIDLVDNYFVKDTSEAPSSSDEKSEQVCTSCEDNASAVGFCVECGEWLCKTCIEAHQRVKFTKDHLIRKKEDVSESVGASGQRPVFCPVHKQEQLKLFCETCDRLTCRDCQLLEHKEHRYQFLEEAFQNQKGAIENLLAKLLEKKNYVHFAATQVQNRIKEVNETNKRVEQEIKVAIFTLINEINKKGKSLLQQLENVTKERQMKLLQQQNDITGLSRQVKHVMNFTNWAIASGSSTALLYSKRLITFQLRHILKARCDPVPAANGAIRFHCDPTFWAKNVVNLGNLVIESKPAPGYTPNVVVGQVPPGTNHISKTPGQINLAQLRLQHMQQQVYAQKHQQLQQMRMQQPPAPVPTTTTTTQQHPRQAAPQMLQQQPPRLISVQTMQRGNMNCGAFQAHQMRLAQNAARIPGIPRHSGPQYSMMQPHLQRQHSNPGHAGPFPVVSVHNTTINPTSPTTATMANANRGPTSPSVTAIELIPSVTNPENLPSLPDIPPIQLEDAGSSSLDNLLSRYISGSHLPPQPTSTMNPSPGPSALSPGSSGLSNSHTPVRPPSTSSTGSRGSCGSSGRTAEKTSLSFKSDQVKVKQEPGTEDEICSFSGGVKQEKTEDGRRSACMLSSPESSLTPPLSTNLHLESELDALASLENHVKIEPADMNESCKQSGLSSLVNGKSPIRSLMHRSARIGGDGNNKDDDPNEDWCAVCQNGGDLLCCEKCPKVFHLTCHVPTLLSFPSGDWICTFCRDIGKPEVEYDCDNLQHSKKGKTAQGLSPVDQRKCERLLLYLYCHELSIEFQEPVPASIPNYYKIIKKPMDLSTVKKKLQKKHSQHYQIPDDFVADVRLIFKNCERFNEMMKVVQVYADTQEINLKADSEVAQAGKAVALYFEDKLTEIYSDRTFAPLPEFEQEEDDGEVTEDSDEDFIQPRRKRLKSDERPVHIK
B3: TRIM29: human RING type E3 ligase expressed from lentiviral vector (protein, UniProt Q14134 1-588, looked up)
Tripartite motif-containing …: MEAADASRSNGSSPEARDARSPSGPSGSLENGTKADGKDAKTTNGHGGEAAEGKSLGSALKPGEGRSALFAGNEWRRPIIQFVESGDDKNSNYFSMDSMEGKRSPYAGLQLGAAKKPPVTFAEKGELRKSIFSESRKPTVSIMEPGETRRNSYPRADTGLFSRSKSGSEEVLCDSCIGNKQKAVKSCLVCQASFCELHLKPHLEGAAFRDHQLLEPIRDFEARKCPVHGKTMELFCQTDQTCICYLCMFQEHKNHSTVTVEEAKAEKETELSLQKEQLQLKIIEIEDEAEKWQKEKDRIKSFTTNEKAILEQNFRDLVRDLEKQKEEVRAALEQREQDAVDQVKVIMDALDERAKVLHEDKQTREQLHSISDSVLFLQEFGALMSNYSLPPPLPTYHVLLEGEGLGQSLGNFKDDLLNVCMRHVEKMCKADLSRNFIERNHMENGGDHRYVNNYTNSFGGEWSAPDTMKRYSMYLTPKGGVRTSYQPSSPGRFTKETTQKNFNNLYGTKGNYTSRVWEYSSSIQNSDNDLPVVQGSSSFSLKGYPSLMRSQSPKAQPQTWKSGKQTMLSHYRPFYVNKGNGIGSNEAP
modifications: lentiviral expression
notes: as for B1
B4: TRIM34: human RING type E3 ligase expressed from lentiviral vector (protein, UniProt Q9BYJ4 1-488, looked up)
E3 ubiquitin-protein ligase …: MASKILLNVQEEVTCPICLELLTEPLSLDCGHSLCRACITVSNKEAVTSMGGKSSCPVCGISYSFEHLQANQHLANIVERLKEVKLSPDNGKKRDLCDHHGEKLLLFCKEDRKVICWLCERSQEHRGHHTVLTEEVFKECQEKLQAVLKRLKKEEEEAEKLEADIREEKTSWKYQVQTERQRIQTEFDQLRSILNNEEQRELQRLEEEEKKTLDKFAEAEDELVQQKQLVRELISDVECRSQWSTMELLQDMSGIMKWSEIWRLKKPKMVSKKLKTVFHAPDLSRMLQMFRELTAVRCYWVDVTLNSVNLNLNLVLSEDQRQVISVPIWPFQCYNYGVLGSQYFSSGKHYWEVDVSKKTAWILGVYCRTYSRHMKYVVRRCANRQNLYTKYRPLFGYWVIGLQNKCKYGVFEESLSSDPEVLTLSMAVPPCRVGVFLDYEAGIVSFFNVTSHGSLIYKFSKCCFSQPVYPYFNPWNCPAPMTLCPPSS
B5: TRIM26: human RING type E3 ligase expressed from lentiviral vector (protein, UniProt Q12899 1-539, looked up)
Tripartite motif-containing …: MATSAPLRSLEEEVTCSICLDYLRDPVTIDCGHVFCRSCTTDVRPISGSRPVCPLCKKPFKKENIRPVWQLASLVENIERLKVDKGRQPGEVTREQQDAKLCERHREKLHYYCEDDGKLLCVMCRESREHRPHTAVLMEKAAQPHREKILNHLSTLRRDRDKIQGFQAKGEADILAALKKLQDQRQYIVAEFEQGHQFLREREEHLLEQLAKLEQELTEGREKFKSRGVGELARLALVISELEGKAQQPAAELMQDTRDFLNRYPRKKFWVGKPIARVVKKKTGEFSDKLLSLQRGLREFQGKLLRDLEYKTVSVTLDPQSASGYLQLSEDWKCVTYTSLYKSAYLHPQQFDCEPGVLGSKGFTWGKVYWEVEVEREGWSEDEEEGDEEEEGEEEEEEEEAGYGDGYDDWETDEDEESLGDEEEEEEEEEEEVLESCMVGVARDSVKRKGDLSLRPEDGVWALRLSSSGIWANTSPEAELFPALRPRRVGIALDYEGGTVTFTNAESQELIYTFTATFTRRLVPFLWLKWPGTRLLLRP
modifications: lentiviral expression
notes: as for B1
B6: TRIM32: human RING type E3 ligase expressed from lentiviral vector (protein, UniProt Q13049 2-653, looked up)
E3 ubiquitin-protein ligase …: AAAAASHLNLDALREVLECPICMESFTEEQLRPKLLHCGHTICRQCLEKLLASSINGVRCPFCSKITRITSLTQLTDNLTVLKIIDTAGLSEAVGLLMCRSCGRRLPRQFCRSCGLVLCEPCREADHQPPGHCTLPVKEAAEERRRDFGEKLTRLRELMGELQRRKAALEGVSKDLQARYKAVLQEYGHEERRVQDELARSRKFFTGSLAEVEKSNSQVVEEQSYLLNIAEVQAVSRCDYFLAKIKQADVALLEETADEEEPELTASLPRELTLQDVELLKVGHVGPLQIGQAVKKPRTVNVEDSWAMEATASAASTSVTFREMDMSPEEVVASPRASPAKQRGPEAASNIQQCLFLKKMGAKGSTPGMFNLPVSLYVTSQGEVLVADRGNYRIQVFTRKGFLKEIRRSPSGIDSFVLSFLGADLPNLTPLSVAMNCQGLIGVTDSYDNSLKVYTLDGHCVACHRSQLSKPWGITALPSGQFVVTDVEGGKLWCFTVDRGSGVVKYSCLCSAVRPKFVTCDAEGTVYFTQGLGLNLENRQNEHHLEGGFSIGSVGPDGQLGRQISHFFSENEDFRCIAGMCVDARGDLIVADSSRKEILHFPKGGGYSVLIREGLTCPVGIALTPKGQLLVLDCWDHCIKIYSYHLRRYSTP
B7: RNF41: human RING type E3 ligase expressed from lentiviral vector (protein, UniProt Q9H4P4 1-317, looked up)
E3 ubiquitin-protein ligase …: MGYDVTRFQGDVDEDLICPICSGVLEEPVQAPHCEHAFCNACITQWFSQQQTCPVDRSVVTVAHLRPVPRIMRNMLSKLQIACDNAVFGCSAVVRLDNLMSHLSDCEHNPKRPVTCEQGCGLEMPKDELPNHNCIKHLRSVVQQQQTRIAELEKTSAEHKHQLAEQKRDIQLLKAYMRAIRSVNPNLQNLEETIEYNEILEWVNSLQPARVTRWGGMISTPDAVLQAVIKRSLVESGCPASIVNELIENAHERSWPQGLATLETRQMNRRYYENYVAKRIPGKQAVVVMACENQHMGDDMVQEPGLVMIFAHGVEEI
modifications: lentiviral expression
notes: as for B1

Test system: coxsackievirus B3 (CVB3-GFP)
Type: cell-based
Settings: HeLa cells, replicate R1; for Percent Infected R1: GFP-positive cells within RFP-positive gate

Molecule	Percent Infected R1	Z score R1
B1	60.7%	−0.355
B2	55.3%	−0.424
B3	68%	−0.262
B4	62.2%	−0.336
B5	49.3%	−0.5
B6	58.4%	−0.384
B7	93.5%	0.06
